# Laboratory results published in the supplement of paper PMC9112550, “Optimization of the antimicrobial peptide Bac7 by deep mutational scanning” (BMC Biology, 2022).
# System: Escherichia coli TOP10
# Assay: shrunken log2 fold change of peptide-encoding DNA abundance (4.5 h post-induction vs induction); higher = less antimicrobial activity (less host growth inhibition)
# Settings: time post-induction: 4.5 h; library: site-saturation at positions 5, 18, 19, 20
# 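Note: peptides expressed intracellularly from a pBAD plasmid library in pooled LB shake-flask culture, induced with 0.3% L-arabinose, DNA abundance read by NGS, three biological replicates, DESeq2 with apeglm shrinkage.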
row,Sequence,shrunken log2 fold change
1,RRIRKRPPRLPRPRPRPGDLPRP,0.273
2,RRIRARPPRLPRPRPRPCVPPRP,-0.0952
3,RRIRSRPPRLPRPRPRPEFAPRP,0.413
4,RRIRARPPRLPRPRPRPYLTPRP,-0.655
5,RRIRTRPPRLPRPRPRPFHVPRP,-0.0683
6,RRIRWRPPRLPRPRPRPPTCPRP,0.614
7,RRIRARPPRLPRPRPRPLLLPRP,0.313
8,RRIRSRPPRLPRPRPRPKVCPRP,0.00182
9,RRIRDRPPRLPRPRPRPHTPPRP,0.0203
10,RRIRRRPPRLPRPRPRPCGAPRP,0.503
11,RRIRERPPRLPRPRPRPGRHPRP,-0.0636
12,RRIRHRPPRLPRPRPRPDTCPRP,-0.287
13,RRIRFRPPRLPRPRPRPQAFPRP,-0.175
14,RRIRDRPPRLPRPRPRPERNPRP,0.278
15,RRIRSRPPRLPRPRPRPAQVPRP,0.09
16,RRIRWRPPRLPRPRPRPTMMPRP,0.113
17,RRIRTRPPRLPRPRPRPKNKPRP,-0.525
18,RRIRTRPPRLPRPRPRPYRWPRP,-0.281
19,RRIRRRPPRLPRPRPRPRMGPRP,0.136
20,RRIRIRPPRLPRPRPRPMMHPRP,-0.59
21,RRIRNRPPRLPRPRPRPTESPRP,-0.0455
22,RRIRVRPPRLPRPRPRPARLPRP,0.266
23,RRIRIRPPRLPRPRPRPNWPPRP,-0.146
24,RRIRTRPPRLPRPRPRPASSPRP,-0.362
25,RRIRRRPPRLPRPRPRPIDLPRP,-0.115

row,Sequence,shrunken log2 fold change
1,RRIRTRPPRLPRPRPRPSCLPRP,-0.624
2,RRIRARPPRLPRPRPRPIWEPRP,0.473
3,RRIRARPPRLPRPRPRPGPTPRP,0.574
4,RRIRGRPPRLPRPRPRPTSIPRP,0.129
5,RRIRERPPRLPRPRPRPLVNPRP,-0.456
6,RRIRKRPPRLPRPRPRPWRLPRP,-0.0807
7,RRIRNRPPRLPRPRPRPQKDPRP,-0.564
8,RRIRVRPPRLPRPRPRPCISPRP,0.00333
9,RRIRNRPPRLPRPRPRPTQEPRP,0.786
10,RRIRHRPPRLPRPRPRPSKVPRP,-0.146
11,RRIRGRPPRLPRPRPRPQWHPRP,0.0863
12,RRIRNRPPRLPRPRPRPLARPRP,0.107
13,RRIRGRPPRLPRPRPRPQPKPRP,0.884
14,RRIRYRPPRLPRPRPRPQGHPRP,-0.17
15,RRIRSRPPRLPRPRPRPQTSPRP,-0.157
16,RRIRFRPPRLPRPRPRPKSIPRP,-0.0406
17,RRIRTRPPRLPRPRPRPKRKPRP,0.0722
18,RRIRQRPPRLPRPRPRPAYPPRP,-0.167
19,RRIRTRPPRLPRPRPRPTLVPRP,0.0196
20,RRIRDRPPRLPRPRPRPCWQPRP,0.0562
21,RRIRLRPPRLPRPRPRPLSKPRP,0.0272
22,RRIRPRPPRLPRPRPRPPSPPRP,0.439
23,RRIRQRPPRLPRPRPRPPNSPRP,-0.0968
24,RRIRLRPPRLPRPRPRPQCQPRP,-0.399
25,RRIRKRPPRLPRPRPRPTHIPRP,0.328

row,Sequence,shrunken log2 fold change
1,RRIRDRPPRLPRPRPRPSSAPRP,0.0666
2,RRIRNRPPRLPRPRPRPAGQPRP,0.0891
3,RRIRLRPPRLPRPRPRPESAPRP,0.228
4,RRIRLRPPRLPRPRPRPEQNPRP,0.41
5,RRIRGRPPRLPRPRPRPTKNPRP,0.69
6,RRIRYRPPRLPRPRPRPKSRPRP,-0.552
7,RRIRSRPPRLPRPRPRPVYFPRP,-0.347
8,RRIRTRPPRLPRPRPRPQTHPRP,-0.322
9,RRIRFRPPRLPRPRPRPESCPRP,-0.141
10,RRIRKRPPRLPRPRPRPKFNPRP,-0.0876
11,RRIRFRPPRLPRPRPRPPNMPRP,-0.0513
12,RRIRERPPRLPRPRPRPNNPPRP,-0.736
13,RRIRHRPPRLPRPRPRPHHKPRP,-0.556
14,RRIRCRPPRLPRPRPRPQNVPRP,-0.749
15,RRIRCRPPRLPRPRPRPGWWPRP,0.054
16,RRIRWRPPRLPRPRPRPVGCPRP,0.575
17,RRIRNRPPRLPRPRPRPMICPRP,0.0101
18,RRIRTRPPRLPRPRPRPECKPRP,0.165
19,RRIRSRPPRLPRPRPRPVRDPRP,0.369
20,RRIRWRPPRLPRPRPRPQWDPRP,-0.0065
21,RRIRWRPPRLPRPRPRPVMLPRP,-0.0383
22,RRIRVRPPRLPRPRPRPGGCPRP,0.261
23,RRIRFRPPRLPRPRPRPVIDPRP,-0.225
24,RRIRYRPPRLPRPRPRPDRQPRP,-0.0345
25,RRIRDRPPRLPRPRPRPSRSPRP,0.0199
